Results: the supplement of paper PMC10567573

B1: NEUROD6 (parent)
chain: YHSPELTTPPGHGTLDNSKSMKPY

Variants of: B1
Test: protein stability index of a GFP-peptide fusion (GPS, HEK-293T) (PSI 1-6); higher = more stable
Details: c terminus: a fixed tail appended
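Note: lentivirally expressed fusions sorted by FACS into six bins by GFP to DsRed ratio, PSI derived from sequencing read proportions per bin multiplied by bin number.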

Protein stability index, by site and new letter:
S18: Y 1.94; R 2; G 2.39; P 2.17; T 2; E 2.16; D 2.06; A 2.09; F 1.81; M 1.76; Q 2.22; H 2.04; W 1.8; L 1.74; I 1.95; V 2.38; C 1.81
S20: F 1.9; P 2.3; Y 2.23; K 1.94; R 1.4; V 1.92; E 2.54; G 2.28; Q 2.48; D 2.28; W 1.97; M 2.43; H 1.87; N 2.33; A 2.04; T 2.87; I 1.7; L 1.79; C 1.86
Y24: L 2.27; I 2.21; W 1.98; A 2.24; C 2.38; R 2.48; G 2.67; M 2.02; V 2.41; D 2.44; T 2.55; N 2.44; Q 2.62; H 2.45; F 2.21; E 2.91; K 2.23; S 2.36
K19: E 2.59; M 2.37; A 2.3; N 2.44; Q 2.24; G 2.21; H 2.07; T 2.35; P 2.22; D 2.85; I 2.33; L 1.96; V 2.39; S 2.17; R 1.92; C 2.05; F 1.85; W 1.5; Y 1.9
N17: V 2.15; C 1.69; E 2.68; Q 2.52; D 2.21; H 1.99; S 2.3; L 1.72; G 2.68; W 2.51; R 2.01; Y 1.88; M 1.55; F 2.14; A 2.51; I 2.23; K 2.14; T 2.15; P 2.15
K22: N 2.14; L 2.2; R 2.47; P 1.82; S 2.26; M 2.15; Q 2.15; W 2.32; H 1.87; A 2.56; G 1.75; F 2.25; I 2.41; Y 1.83; D 2.55; V 2.06; T 2.32; C 1.81; E 2.46
H12: C 2.25; P 2.25; I 2.01; N 2.49; M 2.56; V 2.16; Y 1.71; R 2.25; S 1.96; L 2.29; F 1.97; G 2.48; W 1.43; Q 2.21; T 2.53; A 2.16; D 2.56; K 2.18; E 2.24
D16: N 2.27; H 2.46; F 1.75; E 2.32; L 1.98; C 2.66; R 1.63; W 2.19; Q 2.59; G 1.56; S 2.26; V 2.18; Y 2.05; K 1.86; A 1.65; T 2.05; P 2.74; M 2.45; I 1.81
G13: K 2.35; A 2.28; V 2.05; S 2.19; M 2.13; Y 2.07; N 2.47; T 2.41; C 1.99; I 2.06; Q 2.11; W 1.76; L 2.14; D 2.46; E 2.67; F 2.18; H 2.48; R 1.76
